± gives the uncertainty stated by the source.

The data set is described as follows: amyloid nucleation score (Sup35N fusion, yeast selection) (log enrichment); library NNK3; higher = more nucleation; inactive = no reads after selection. The essentials: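 The nucleation score is the log enrichment of output over input reads, calculated with DiMSum and centred on the mode score of non-aggregating sequences. Sequences with under 100 input reads were excluded. Reads came from Illumina sequencing of plasmid inserts from psi-negative yeast expressing Sup35N fused to peptides of 20 random codons, induced 24 hours with 100 μM copper sulfate and grown 7 days at 30°C without adenine and uracil.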
For SFFGVVGKEFVIVQLAIVSG, the amyloid nucleation score entry is “inactive”.

As for RTAVVWV, the amyloid nucleation score entry is “inactive”. Substance NVYYSPFCWCMPDMFFDSIC returned an amyloid nucleation score of 2.88 ± 0.08. CLILSWYKYCSRGEMMHMKH: the amyloid nucleation score result is “inactive”. With TFYDDYQDLQKLFARFWLPV, the amyloid nucleation score result is “inactive”. Substance YFFIPLMF displayed an amyloid nucleation score of 0.725 ± 0.14.

As for IFQRKRRTYLS, the amyloid nucleation score entry is “inactive”. Next, TNNTKERYIHLSFMTKWWTF: “inactive”; EEDKLFCGVMWQFG: “inactive”. In the case of LGPREQDLINFNWVFQYLKH it was “inactive”. In the case of LRIMSIYIEEALSIGHDNWF it was 0.205 ± 0.46. For the substance HRYVKALRFF, the amyloid nucleation score entry was “inactive”. ELFKEVCEGEFRAS: the amyloid nucleation score result was “inactive”. As to VFWLRYMNVSRANARGNAS, the amyloid nucleation score entry is “inactive”. Regarding CEMLMGRVIFWSPQPQLWNY, the amyloid nucleation score entry is “inactive”. In the case of GVSNRHGGTIYRQRAMHSVG it was “inactive”; in that of IWISLGAMIMFMVN, “inactive”; in that of RTWTSCDVICLGICLRSLAK, “inactive”. In the case of VFFETNVMGQEWYGGHVKR it was “inactive”.

FFRQQKYSVCLFGGTFIWVV: the amyloid nucleation score result is “inactive”.

The substance WILLGRSSQWSWASGGNSGQ came in with an amyloid nucleation score of 1.5 ± 0.092.

For the substance IVKVLNGFKTRVSSVCVTNG, the amyloid nucleation score result was “inactive”. In the case of TISYMWRLNGWRSNRAFGSI it was “inactive”; in that of SDFDMFSCLGNRNLHCSVSV, “inactive”; in that of NFSVTYEFFGQSI, 0.292 ± 0.32. In the case of KALTRRIILHWK it was 0.711 ± 0.28. With MSIIKKIG, the amyloid nucleation score result is “inactive”.

On to MWFTLKMYTMRCCFEVTLRK, for which the amyloid nucleation score entry is “inactive”.

Turning to YEVSTRRRVM, the amyloid nucleation score entry was “inactive”. In the case of NPDLVFWFKYLWYDGSCQ it was “inactive”. Turning to RCRTDILYNFERHYLRVEYA, the amyloid nucleation score entry is “inactive”. Take NDSSQLLITI: the amyloid nucleation score result was “inactive”. On to LLIKDYMHDHLGIILYTEEC, for which the amyloid nucleation score entry is “inactive”. In the case of FSACRDRTLGDHGQQPRDIG it was “inactive”; in that of SLCFGTP, “inactive”. Next, MMTIRSSMLAKGLVNALATV: “inactive”; NYHRDSDVLTIFVISCPFLR: “inactive”; SLVTYNVVRSKARNRWIELV: “inactive”. As to INAGF, the amyloid nucleation score result is “inactive”.

Turning to YCLFASMKDDAQGTQNCDRS, the amyloid nucleation score result is “inactive”. In the case of VRMVKYCLTLSSRTYCLIIM it was “inactive”. For FILGWCGIYSTACPNTSTGT, the amyloid nucleation score entry is “inactive”.

Take CESPLERSSAKYCRWGSCWG: the amyloid nucleation score entry was “inactive”. In the case of KGSLGVPWLLVNSGLINGC it was “inactive”. In the case of EFFHNYVINMERYNCVLVRM it was “inactive”. As for QALGVGN, the amyloid nucleation score entry is “inactive”. Next, FLANGSDWIFLWFRIHVDHF: “inactive”. Next, NSYKVLTYVFCQVRANTIYC: 2.04 ± 0.059; ILYDDSCLFVTASWTSYVFV: 1.4 ± 0.073. In the case of LCRSSMGPFGNLWEKQLYIW, the amyloid nucleation score result is “inactive”. In the case of GCVMVKSSLMFSLLR it was -0.883 ± 1.2; in that of CGSVNVSTRYKD, “inactive”; in that of LARLCCLSVSFSKLLIVFTI, “inactive”. In the case of YCPRLRVRVCWFGTSSLDFQ, the amyloid nucleation score turned out to be 0.862 ± 0.16. In the case of KNVSEEVGLSLVPSEGKSHL it was “inactive”; in that of EGETTEVLTLVVWRKVINNS, “inactive”. Turning to FIGFSAWWNGMDNVRVLASS, the amyloid nucleation score is -0.269 ± 0.73.

As to GHSGKVVL, the amyloid nucleation score result was “inactive”.

For the substance IYSRELHVCAVSIADFIWFW, the amyloid nucleation score entry was “inactive”. In the case of HRLVGTNISSTR it was “inactive”; in that of NKAYCWTLYLGMINDCIRFY, “inactive”. With RCHYSSWWESPCQSVM, the amyloid nucleation score entry is “inactive”. On to ATIYICGLNPNRVAACIVLE, for which the amyloid nucleation score entry was “inactive”. Turning to LLLSLGVLCYP, the amyloid nucleation score result is “inactive”. Next, LLYQFSELQMASWNNKKKEL: “inactive”; VPGQYWFIDGMTFGNDDTRS: “inactive”; GCLIAGYKKRDANKFCGVAL: “inactive”. In the case of IEWVRNTLSISLIERYRLNG it was “inactive”.

Take CKLRLWSEFSLVTSRSIYIA: the amyloid nucleation score result is “inactive”. NADCAYCLLFNLRWSVCVRT had an amyloid nucleation score of -0.067 ± 0.36. In the case of FFARSHAVIINFFCTH it was 2.72 ± 0.066; in that of YANDANSCDWCICAFDRRSC, “inactive”. In the case of SIHLMWRQCYFSLLCVNKGM it was “inactive”.

Regarding IYKKNMAGRVDQKIVTQDPP, the amyloid nucleation score result is “inactive”. Next, YRNSC: “inactive”; FMLGDAVFRFFVRNGGRIDN: “inactive”; GESNLCDAG: “inactive”. In the case of IKAYSRRSLSSSG it was “inactive”. Consider LDLCSRL, for which the amyloid nucleation score result is “inactive”. Regarding FYKAFIL, the amyloid nucleation score entry was “inactive”. Next, MYVQVS: -0.795 ± 0.91. With IWNKFGIIFYVVYYSIRTNL, the amyloid nucleation score result is “inactive”. In the case of MCQNANRYTGMSLVMFVGSV it was 1.24 ± 0.12; in that of AVWRYSVSYTLYHSSGLLES, “inactive”; in that of YPLCEL, 0.193 ± 0.19. In the case of AKFSQVLLLQWGSSPDIDRE it was 1.11 ± 0.18; in that of NLTLVVHYISRQSISEHYLR, “inactive”.

Take LLPKVLLP: the amyloid nucleation score entry is “inactive”. Next, VNTFGLDHEITSFMMCGETG: “inactive”; IKNYCIIYSETPGRNKCGLR: 1.01 ± 0.22. Next, GLVNCEHVWRIETKLVTPHL: -0.764 ± 0.76. ASMYIMFTTVNKILFIEISD had an amyloid nucleation score of 1.69 ± 0.056. Turning to SMTHRPTAVHSDVHGQCVKW, the amyloid nucleation score result is “inactive”. Regarding QYVIIYEKQLGWRKFDFNSV, the amyloid nucleation score entry was “inactive”. For the substance CTGLECIGTAYRQGGDRVLW, the amyloid nucleation score result was “inactive”. In turn, FLNSCQNMQVPSGKFNSSKV displayed an amyloid nucleation score of -0.122 ± 0.82.

As for SNLRFFVAFLQGRSLN, the amyloid nucleation score is 0.959 ± 0.23.

In the case of SRHRNYHFCRILQCGFERSW, the amyloid nucleation score was -0.526 ± 0.93. Turning to LCSAIGWSSACIFVWSYYTR, the amyloid nucleation score result was “inactive”.

With KMKIT, the amyloid nucleation score result is “inactive”. Next, IHGHC: “inactive”; DLLPLVTKYFSIGLH: “inactive”. Next, YSLAELMCMKEHLPMRNGCF: 0.774 ± 0.14. Next, VRAGTIYRGVYHFCLFCMGE: 0.828 ± 0.15; ERLGVL: “inactive”; VEALILSVRKCVFGLPVPAL: “inactive”.

As to VARNGDLF, the amyloid nucleation score result is “inactive”. In the case of MYFILASSISILFGIKVFPM it was “inactive”; in that of PDSMNFTPDNHHVRNGYNNF, “inactive”; in that of TDVDNGLYRIDNLMARAKVY, “inactive”. Next, IVLNIMHNVSHFLGLYVEG: “inactive”; YDNVDNYTTEISVNGCLMMN: “inactive”; LSRINSCRLMVQVQLSRT: “inactive”. In the case of ITTCLMYHRLCECGSKVLGL it was “inactive”. Take YSVWVGLCVYSDGYRYNMPE: the amyloid nucleation score was found to be 2.06 ± 0.062. As to ASDSDTCCGFVRGAVYWRLT, the amyloid nucleation score is -0.117 ± 0.84. For CRQSVCFGAVC, the amyloid nucleation score entry is “inactive”. In the case of CWGST it was “inactive”; in that of SQLVVLCCCRSPSFYCGVL, 1.32 ± 0.17; in that of VGYAKYPSNRVRIYRGFENV, “inactive”. Next, GSYTLYFVIWLFHIRFYGTR: “inactive”; VFLSWCAGSKGFSGVCRI: 0.6 ± 0.2; WFLSLLSQLGYGQVFVDFIP: “inactive”. In turn, IVHVSLWKMSISPIWEWSMI had an amyloid nucleation score of 0.006 ± 0.37.

On to DFTYEL, for which the amyloid nucleation score result was “inactive”. Next, YSTVDQLARGLQKLMVWLDV: “inactive”. Next, TWYRCD: “inactive”; FVSGYVVALCYPWQGCPGVC: 1.97 ± 0.093. In the case of ISQHMANFYNSVVVVCILED it was 3.19 ± 0.075.

In the case of WWAISTLGMGNQLFLGVPRY, the amyloid nucleation score entry was “inactive”. Next, CMYSFGEL: “inactive”.
